B1: IRX6 (parent)
chain: YPCLEKPRIWSLAHTATASAVEGA

Variants of: B1
Experiment: protein stability index of a GFP-peptide fusion (GPS, HEK-293T) (PSI 1-6); higher = more stable
Details: c terminus: a fixed tail appended
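Note: lentivirally expressed fusions sorted by FACS into six bins by GFP to DsRed ratio, PSI derived from sequencing read proportions per bin multiplied by bin number.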

Variant | protein stability index
YPCWEKPRIWSLAHTATASAVEGA [L4W] | 2.68
YPCMEKPRIWSLAHTATASAVEGA [L4M] | 4.4
YPCQEKPRIWSLAHTATASAVEGA [L4Q] | 1.49
YPCTEKPRIWSLAHTATASAVEGA [L4T] | 3.03
YPCAEKPRIWSLAHTATASAVEGA [L4A] | 4.55
YPCYEKPRIWSLAHTATASAVEGA [L4Y] | 2.53
YPCKEKPRIWSLAHTATASAVEGA [L4K] | 2.37
YPCPEKPRIWSLAHTATASAVEGA [L4P] | 2.5
YPCFEKPRIWSLAHTATASAVEGA [L4F] | 2.58
YPCVEKPRIWSLAHTATASAVEGA [L4V] | 2.07
YPCSEKPRIWSLAHTATASAVEGA [L4S] | 1.81
YPCEEKPRIWSLAHTATASAVEGA [L4E] | 2.64
YPCIEKPRIWSLAHTATASAVEGA [L4I] | 2.46
DPCLEKPRIWSLAHTATASAVEGA [Y1D] | 3.84
FPCLEKPRIWSLAHTATASAVEGA [Y1F] | 1.86
EPCLEKPRIWSLAHTATASAVEGA [Y1E] | 4.33
NPCLEKPRIWSLAHTATASAVEGA [Y1N] | 3.84
MPCLEKPRIWSLAHTATASAVEGA [Y1M] | 3.83
GPCLEKPRIWSLAHTATASAVEGA [Y1G] | 3.53
IPCLEKPRIWSLAHTATASAVEGA [Y1I] | 2.88
HPCLEKPRIWSLAHTATASAVEGA [Y1H] | 2.54
CPCLEKPRIWSLAHTATASAVEGA [Y1C] | 2.82
LPCLEKPRIWSLAHTATASAVEGA [Y1L] | 3.59
KPCLEKPRIWSLAHTATASAVEGA [Y1K] | 3.73

Variant | protein stability index
APCLEKPRIWSLAHTATASAVEGA [Y1A] | 4.1
WPCLEKPRIWSLAHTATASAVEGA [Y1W] | 2.82
QPCLEKPRIWSLAHTATASAVEGA [Y1Q] | 3.79
VPCLEKPRIWSLAHTATASAVEGA [Y1V] | 3.89
SPCLEKPRIWSLAHTATASAVEGA [Y1S] | 3.81
TPCLEKPRIWSLAHTATASAVEGA [Y1T] | 3.36
RPCLEKPRIWSLAHTATASAVEGA [Y1R] | 3.33
PPCLEKPRIWSLAHTATASAVEGA [Y1P] | 4.08
YPCLEKDRIWSLAHTATASAVEGA [P7D] | 4.03
YPCLEKARIWSLAHTATASAVEGA [P7A] | 3.29
YPCLEKCRIWSLAHTATASAVEGA [P7C] | 2.69
YPCLEKHRIWSLAHTATASAVEGA [P7H] | 2.44
YPCLEKERIWSLAHTATASAVEGA [P7E] | 2.27
YPCLEKGRIWSLAHTATASAVEGA [P7G] | 2.84
YLCLEKPRIWSLAHTATASAVEGA [P2L] | 1.88
YSCLEKPRIWSLAHTATASAVEGA [P2S] | 1.7
YECLEKPRIWSLAHTATASAVEGA [P2E] | 2.29
YVCLEKPRIWSLAHTATASAVEGA [P2V] | 2.51
YQCLEKPRIWSLAHTATASAVEGA [P2Q] | 2.98
YTCLEKPRIWSLAHTATASAVEGA [P2T] | 3.4
YRCLEKPRIWSLAHTATASAVEGA [P2R] | 2.37
YYCLEKPRIWSLAHTATASAVEGA [P2Y] | 2.69
YHCLEKPRIWSLAHTATASAVEGA [P2H] | 2.9
YFCLEKPRIWSLAHTATASAVEGA [P2F] | 2.41

Variant | protein stability index
YICLEKPRIWSLAHTATASAVEGA [P2I] | 2.96
YNCLEKPRIWSLAHTATASAVEGA [P2N] | 4.81
YDCLEKPRIWSLAHTATASAVEGA [P2D] | 2.28
YWCLEKPRIWSLAHTATASAVEGA [P2W] | 3.12
YMCLEKPRIWSLAHTATASAVEGA [P2M] | 3.06
YGCLEKPRIWSLAHTATASAVEGA [P2G] | 3.7
YACLEKPRIWSLAHTATASAVEGA [P2A] | 2.82
YKCLEKPRIWSLAHTATASAVEGA [P2K] | 2.82
YPCLDKPRIWSLAHTATASAVEGA [E5D] | 2.81
YPCLHKPRIWSLAHTATASAVEGA [E5H] | 2.37
YPCLYKPRIWSLAHTATASAVEGA [E5Y] | 2.68
YPCLKKPRIWSLAHTATASAVEGA [E5K] | 2.92
YPCLLKPRIWSLAHTATASAVEGA [E5L] | 3.24
YPCLSKPRIWSLAHTATASAVEGA [E5S] | 2.98
YPCLRKPRIWSLAHTATASAVEGA [E5R] | 3.21
YPCLGKPRIWSLAHTATASAVEGA [E5G] | 3.15
YPCLPKPRIWSLAHTATASAVEGA [E5P] | 2.63
YPCLNKPRIWSLAHTATASAVEGA [E5N] | 2.34
YPCLVKPRIWSLAHTATASAVEGA [E5V] | 4.3
YPCLFKPRIWSLAHTATASAVEGA [E5F] | 3.7
YPCLAKPRIWSLAHTATASAVEGA [E5A] | 1.95
YPCLWKPRIWSLAHTATASAVEGA [E5W] | 1.9
YPCLQKPRIWSLAHTATASAVEGA [E5Q] | 3.22
YPCLCKPRIWSLAHTATASAVEGA [E5C] | 3.7

Variant | protein stability index
YPCLTKPRIWSLAHTATASAVEGA [E5T] | 3.97
YPCLEMPRIWSLAHTATASAVEGA [K6M] | 2.41
YPCLEPPRIWSLAHTATASAVEGA [K6P] | 2.1
YPCLERPRIWSLAHTATASAVEGA [K6R] | 1.88
YPCLEGPRIWSLAHTATASAVEGA [K6G] | 2.34
YPCLEHPRIWSLAHTATASAVEGA [K6H] | 1.79
YPCLESPRIWSLAHTATASAVEGA [K6S] | 3.68
YPCLEVPRIWSLAHTATASAVEGA [K6V] | 2.61
YPCLELPRIWSLAHTATASAVEGA [K6L] | 1.2
YPCLEWPRIWSLAHTATASAVEGA [K6W] | 2.69
YPCLENPRIWSLAHTATASAVEGA [K6N] | 1.48
YPCLEFPRIWSLAHTATASAVEGA [K6F] | 2.54
YPCLEIPRIWSLAHTATASAVEGA [K6I] | 1.59
YPKLEKPRIWSLAHTATASAVEGA [C3K] | 3.76
YPTLEKPRIWSLAHTATASAVEGA [C3T] | 2.85
YPLLEKPRIWSLAHTATASAVEGA [C3L] | 1.86
YPGLEKPRIWSLAHTATASAVEGA [C3G] | 2.91
YPILEKPRIWSLAHTATASAVEGA [C3I] | 1.74
YPELEKPRIWSLAHTATASAVEGA [C3E] | 1.85
YPRLEKPRIWSLAHTATASAVEGA [C3R] | 2.76
YPWLEKPRIWSLAHTATASAVEGA [C3W] | 1.68
YPNLEKPRIWSLAHTATASAVEGA [C3N] | 1.37

Source: the supplement of paper PMC10567573
